Data reported in patent US20150132317A1.

Target: ALK F1174L, human (human) (UniProt Q9UM73)
Test: flow cytometry, SY5Y cells stained with isotype control

mean fluorescence intensity (MFI): 90
Substance: isotype control (antibody)
